Numbering of substitutions follows the chain as printed. Several values for one entry are separate records, joined by “and”; a condition that tells them apart may be missing. Equal values may be shown once. Read-outs that look alike come from different tables or passages of the source. Blank lines part the entries; values can stand above or below the binder they belong to.
Assays:
[1] = target: T1, IGF-IR on human tumour cells (H292, MCF-7, RH41) (human, UniProt P08069 31-1367); assay: cell-based or functional assay
[2] = target: T2, EGFR on the surface of human tumour cells (A431, H292) (human, UniProt P00533 25-1210); assay: cell-based or functional assay
[3] = target: T3, Recombinant human EGFR-Fc (aa 1-645 of the extracellular domain of human EGFR fused to human Fc) (human, UniProt P00533 25-645)
T3 construct: range 1-645; bought from R&D Systems; also called EGFR645-Fc; EGFR-Fc (HER-1); not shown: human Fc

[4] = target: T4, IGF1R-Fc (extracellular domain of human IGF1R aa 1-932 fused to hinge and constant regions of human IgG1) (human, UniProt P08069 31-932)
T4 construct: range 1-932; made in house by transient transfection, purified on Protein A; also called IGF-IR-Fc; not shown: hinge and constant regions of human IgG1

[5] = target: T2, EGFR on the surface of human tumour …
[6] = target: T4, IGF1R-Fc (extracellular domain of human …); remark: listed apart in the source
[7] = target: T2, EGFR on the surface of human tumour …; assay: cell-based or functional assay; remark: listed apart in the source
[8] = target: T1, IGF-IR on human tumour cells (H292, …); assay: cell-based or functional assay; remark: listed apart in the source
[9] = target: T2, EGFR on the surface of human tumour …; assay: cell-based or functional assay; remark: listed apart in the source
[10] = target: T3, Recombinant human EGFR-Fc (aa 1-645 of …); remark: listed apart in the source
[11] = target: T2, EGFR on the surface of human tumour …; remark: listed apart in the source
[12] = target: T2, EGFR on the surface of human tumour …; remark: listed apart in the source
[13] = target: T4, IGF1R-Fc (extracellular domain of human …); remark: listed apart in the source
[14] = target: T1, IGF-IR on human tumour cells (H292, …); assay: cell-based or functional assay; remark: listed apart in the source
monkey EGFR = monkey EGFR (monkey); assay: SPR Biacore
rat EGFR = rat EGFR (rat, UniProt A0ABK0LZB0 35-1214); assay: SPR Biacore
mouse EGFR = mouse EGFR (mouse, UniProt Q01279 25-647, limits assumed); assay: SPR Biacore
[15] = target: T2, EGFR on the surface of human tumour …; assay: cell-based or functional assay; remark: listed apart in the source
[16] = target: T3, Recombinant human EGFR-Fc (aa 1-645 of …); remark: listed apart in the source
[17] = target: T1, IGF-IR on human tumour cells (H292, …); assay: cell-based or functional assay; remark: listed apart in the source
[18] = target: T2, EGFR on the surface of human tumour …; assay: cell-based or functional assay; remark: listed apart in the source

- IC50, IGF1-stimulated IGFR phosphorylation, H292 cells, ELISA [1]: 0.9 nM
- IC50, EGF-stimulated EGFR phosphorylation, A431 cells, In Cell Western [2]: 302 nM
- IC50, EGF-stimulated EGFR phosphorylation, H292 cells, ELISA [2]: 127 nM
- IC50, EGF-stimulated ERK phosphorylation, A431 cells, In Cell Western [2]: 300 nM
B1: I1-GS10-E1 pegylated, His-tagged (designed binder)
chain: MGVSDVPRDLEVVAATPTSLLISWSARLKVARYYRITYGETGGNSPVQEFTVPKNVYTATISGLKPGVDYTITVYAVTRFRDYQPISINYRTEIDKGSGSGSGSGSGSGSGSGSGSVSDVPRDLEVVAATPTSLLISWVAGAEDYQYYRITYGETGGNSPVQEFTVPHDLVTATISGLKPGVDYTITVYAVTDMMHVEYTEHPISINYRTEIDKPCQHHHHHH
modifications: 40 kDa branched PEG on the Cys of the C-terminal Cys tail

- IC50, IGF1-stimulated IGFR phosphorylation, H292 cells, ELISA [1]: 2 nM
- IC50, EGF-stimulated EGFR phosphorylation, A431 cells, In Cell Western [2]: 47 nM
- IC50, EGF-stimulated EGFR phosphorylation, H292 cells, ELISA [2]: 46 nM
- IC50, EGF-stimulated ERK phosphorylation, A431 cells, In Cell Western [2]: 50 nM
B2: I1GS10-E3 (Pegylated) (designed binder)
I/E tandem 10Fn3 chain: B1 chain with V139L, A140P, A142K, E143L, D144R, V171R, D193N, T200S, H202Y
modifications: Cys of the C-terminal Cys tail conjugated to 40 kDa branched PEG

- IC50, IGF1-stimulated IGFR phosphorylation, H292 cells, ELISA [1]: 1 nM
- IC50, EGF-stimulated EGFR phosphorylation, A431 cells, In Cell Western [2]: 93 nM
- IC50, EGF-stimulated EGFR phosphorylation, H292 cells, ELISA [2]: 42 nM
- IC50, EGF-stimulated ERK phosphorylation, A431 cells, In Cell Western [2]: 99 nM
- Kd [3]: 4.8 nM and 10.3 nM
- koff [3]: 0.000603 s⁻¹ and 0.000425 s⁻¹
- Kd [4]: 0.27 nM
- koff [4]: 0.000398 s⁻¹
- kon [4]: 1.47e+06 M⁻¹ s⁻¹
- IC50 [5]: 7 nM
B3: I1-GS10-E1, His-tagged, non-pegylated (designed binder)
chain: B1 chain with C216S

- IC50, IGF1-stimulated IGFR phosphorylation, H292 cells, ELISA [1]: 19 nM
- IC50, EGF-stimulated EGFR phosphorylation, A431 cells, In Cell Western [2]: 47 nM
- IC50, EGF-stimulated EGFR phosphorylation, H292 cells, ELISA [2]: 25 nM
- IC50, EGF-stimulated ERK phosphorylation, A431 cells, In Cell Western [2]: 42 nM
- Kd [3]: 2.48 nM
- koff [3]: 0.000291 s⁻¹
- kon [3]: 117000 M⁻¹ s⁻¹
- Kd [4]: 0.03 nM
- koff [4]: 4.54e-05 s⁻¹
- kon [4]: 1.37e+06 M⁻¹ s⁻¹
B4: I1-GS10-E3, non-pegylated (designed binder)
chain: VSDVPRDLEVVAATPTSLLISWSARLKVARYYRITYGETGGNSPVQEFTVPKNVYTATISGLKPGVDYTITVYAVTRFRDYQPISINYRTEIDKGSGSGSGSGSGSGSGSGSGSVSDVPRDLEVVAATPTSLLISWLPGKLRYQYYRITYGETGGNSPVQEFTVPHDLRTATISGLKPGVDYTITVYAVTNMMHVEYSEYPISINYRTEIDKPSQ

- Kd [6]: 2.4 nM
- inhibition of EGF induced EGFR phosphorylation, A431, IC50 [7]: 297 nM
- inhibition of EGF induced ERK phosphorylation, A431, IC50 [7]: 295 nM
- inhibition of EGFR activity, H292 cells, IC50 [7]: 123 nM
- H292 pIGF-IR IC50 (ELISA) [8]: 4 nM
- A431 pEGFR IC50 (In-Cell Western) [9]: 297 nM
- A431 pERK IC50 (In-Cell Western) [9]: 295 nM
- H292 pEGFR IC50 (ELISA) [9]: 123 nM
- Kd [10]: 57.9 nM
- IC50 [11]: 238 nM
- IC50 [12]: 396 nM
- Kd [13]: 2.43 nM
B5: E1-GS10-I1 pegylated, His-tagged (designed binder)
chain: MGVSDVPRDLEVVAATPTSLLISWVAGAEDYQYYRITYGETGGNSPVQEFTVPHDLVTATISGLKPGVDYTITVYAVTDMMHVEYTEHPISINYRTEIDKGSGSGSGSGSGSGSGSGSGSVSDVPRDLEVVAATPTSLLISWSARLKVARYYRITYGETGGNSPVQEFTVPKNVYTATISGLKPGVDYTITVYAVTRFRDYQPISINYRTEIDKPCQHHHHHH
modifications: 40 kDa branched PEG on the Cys of the C-terminal Cys tail
notes: also called E1-GS10-I1 (with PEG)

- Kd [6]: 0.74 nM
- inhibition of IGFR activity, H292 cells, IC50 [14]: 6 nM
- H292 pIGF-IR IC50 (ELISA) [8]: 6 nM
- A431 pEGFR IC50 (In-Cell Western) [9]: 42 nM
- A431 pERK IC50 (In-Cell Western) [9]: 40 nM
- H292 pEGFR IC50 (ELISA) [9]: 10 nM
- Kd [10]: 10.4 nM
- IC50 [11]: 89 nM
- IC50 [12]: 80.5 nM
B6: E3-GS10-I1 pegylated, His-tagged (designed binder)
chain: B5 chain with V25L, A26P, A28K, E29L, D30R, V57R, D79N, T86S, H88Y
modifications: 40 kDa branched PEG on the Cys of the C-terminal Cys tail
notes: also called E3-GS10-I1-Cys (with his)

- Kd [6]: 0.8 nM
- inhibition of IGF1-stimulated IGF1R phosphorylation (Y1131), H292 cells, ELISA, IC50 [14]: 4 nM
- inhibition of RH41 cell proliferation, IC50 [14]: 9 nM
- inhibition of EGF-stimulated EGFR phosphorylation (Y1068), H292 cells, ELISA, IC50 [7]: 0.02 µM
- H292 pIGF-IR IC50 (ELISA) [8]: 1 nM
- A431 pEGFR IC50 (In-Cell Western) [9]: 36 nM
- A431 pERK IC50 (In-Cell Western) [9]: 51 nM
- H292 pEGFR IC50 (ELISA) [9]: 30 nM
- Kd [10]: 3.8 nM
- IC50 [12]: 51 nM
- Kd [3]: 10.2 nM and 7.53 nM
- koff [3]: 0.000389 s⁻¹ and 0.000474 s⁻¹
- kon [3]: 38200 M⁻¹ s⁻¹ and 62900 M⁻¹ s⁻¹
- Kd [4]: 0.66 nM
- koff [4]: 0.000338 s⁻¹
- kon [4]: 513000 M⁻¹ s⁻¹
- IC50 [5]: 14.6 nM
B7: E1-GS10-I1, His-tagged, non-pegylated (designed binder)
chain: B5 chain with C216S
notes: bispecific EGFR/IGF-IR tandem of two 10Fn3 domains

- Kd [6]: 0.1 nM
- H292 pIGF-IR IC50 (ELISA) [8]: 6 nM
- A431 pEGFR IC50 (In-Cell Western) [9]: 14 nM
- A431 pERK IC50 (In-Cell Western) [9]: 12 nM
- H292 pEGFR IC50 (ELISA) [9]: 7 nM
- Kd [10]: 0.7 nM
- IC50 [12]: 25 nM
- Kd [3]: 0.66 nM
- koff [3]: 0.000229 s⁻¹
- kon [3]: 349000 M⁻¹ s⁻¹
- Kd [4]: 0.12 nM
- koff [4]: 0.000209 s⁻¹
- kon [4]: 1.8e+06 M⁻¹ s⁻¹
B8: E3-GS10-I1, non-pegylated (designed binder)
chain: VSDVPRDLEVVAATPTSLLISWLPGKLRYQYYRITYGETGGNSPVQEFTVPHDLRTATISGLKPGVDYTITVYAVTNMMHVEYSEYPISINYRTEIDKGSGSGSGSGSGSGSGSGSGSVSDVPRDLEVVAATPTSLLISWSARLKVARYYRITYGETGGNSPVQEFTVPKNVYTATISGLKPGVDYTITVYAVTRFRDYQPISINYRTEIDKPSQ

- Kd (monkey EGFR): 5.7 nM
- Kd (rat EGFR): 5.6 nM
- Kd (mouse EGFR): 6.9 nM
- IC50 [11]: 19.5 nM
- H292 colony formation assay IC50 [15]: 5 nM
- Kd [16]: 4.77 nM
- IC50, IGF1-stimulated IGFR phosphorylation, H292 cells, ELISA [17]: 0.4 nM
- IC50, EGF-induced EGFR phosphorylation, A431 cells, In Cell Western [18]: 12 nM
- IC50, EGF-induced ERK phosphorylation, A431 cells, In Cell Western [18]: 12 nM
- IC50, EGF-stimulated EGFR phosphorylation, H292 cells, ELISA [18]: 1.3 nM
- Kd [13]: 0.77 nM
B9: E4-GS10-I1 pegylated, His-tagged (designed binder)
chain: MGVSDVPRDLEVVAATPTSLLISWHERDGSRQYYRITYGETGGNSPVQEFTVPGGVRTATISGLKPGVDYTITVYAVTDYFNPTTHEYIYQTTPISINYRTEIDKGSGSGSGSGSGSGSGSGSGSVSDVPRDLEVVAATPTSLLISWSARLKVARYYRITYGETGGNSPVQEFTVPKNVYTATISGLKPGVDYTITVYAVTRFRDYQPISINYRTEIDKPCQHHHHHH
modifications: 40 kDa branched PEG on the Cys of the C-terminal Cys tail
notes: also called E4-GS10-I1 (with Peg)

Source: patent US20180037631A1 (Bristol-Myers Squibb, published 2018)
